The values that follow come from article PMC4005679, “In vitro assembly and activity of an archaeal CRISPR-Cas type I-A Cascade interference complex” (Nucleic Acids Research, 2014).

Data set [1] deals with T1, Csa5;Cas7;Cas5a;Cas3';Cas3'';Cas8a2 (Thermoproteus tenax Kra1;Thermoproteus …, UniProt G4RJZ0;G4RJZ1;G4RJZ2;G4RJZ3;G4RJZ4;G4RJZ5 1-130;1-329;1-226;1-566;1-226;1-361, |||||). As to the kind of experiment: EMSA; yeast RNA competitor; Ca2+ during reconstitution; 0.125-5 uM Cascade; affinity similar to crRNA 5.13; 100 mM HEPES/KOH pH 7, 100 mM NaCl, 10 mM beta-mercaptoethanol, 50 ng yeast RNA, 30 min at 70 C (Cascade; 6% native TBE-PAGE); Cas7 alone without yeast RNA at 80 C, agarose gel; 2-4 nM labeled crRNA. Particulars: protein: recombinant;recombinant;recombinant;recombinant;recombinant;recombinant; tags: untagged;His-SUMO tag cleaved off;;;;; label: 5'-32P (EMSA); unlabeled in SEC; single strand. Background: In EMSA bound probe runs differently from free probe, usually more slowly.

Data set [2] deals with T1, Csa5;Cas7;Cas5a;Cas3';Cas3'';Cas8a2. As to the kind of experiment: EMSA; yeast RNA competitor; Ca2+ during reconstitution; 0.125-2 uM Cascade; 100 mM HEPES/KOH pH 7, 100 mM NaCl, 10 mM beta-mercaptoethanol, 50 ng yeast RNA, 30 min at 70 C (Cascade; 6% native TBE-PAGE); Cas7 alone without yeast RNA at 80 C, agarose gel; 2-4 nM labeled crRNA. The following applies: protein: recombinant;recombinant;recombinant;recombinant;recombinant;recombinant; tags: untagged;His-SUMO tag cleaved off;;;;; label: 5'-32P; single strand.

Turning to AUUGAAAGCGUUGAUGCGGCCGCGACUGGCUGACUCAGCUAUUACGUUGA (ssRNA, 5'-OH from hammerhead cleavage before labeling) [crRNA 5.2], in data set [1], the binding result was “binds”.

B1: crRNA 5.13 (ssRNA)
RNA: AUUGAAAGAUCGCUUGUCCAACCGGGCUCCUCUAUAUGUCGUCAUUAGCUUAGA
modifications: 5'-OH from hammerhead cleavage before labeling
As for B1, the binding result in data set [2] was “binds”.
